± gives the half width of the 95% confidence interval.
Tests used:
[1] = folding stability dG unfold from chymotrypsin proteolysis; higher = more stable
In short: (§1)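 Unfolding free energy was derived, per protease or combined, by relating Bayesian-fitted K50 values from sequencing counts to a sequence-predicted unfolded-state K50 and a shared folded-state K50. The underlying digests exposed cysteine-free mini-proteins under 80 residues, in a PA-tagged cDNA display construct, to trypsin and chymotrypsin at 11 threefold-diluted concentrations and to a no-protease condition. A filter kept only designs with AlphaFold2 dimer inter-PAE above 15.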

[2] = folding stability dG unfold from trypsin proteolysis; higher = more stable
In short: as §1

[3] = folding stability dG unfold (combined trypsin and chymotrypsin); higher = more stable
In short: as §1

Sequence	folding stability dG unfold [1] [kcal/mol]	folding stability dG unfold [2] [kcal/mol]	folding stability dG unfold [3] [kcal/mol]
SAGGSEEVEEEPPVVVTVRLTIELTLADGSKVRVEVELVRTADGRLLLKIRVVNEDTGEVYEFTFPSAGGSA [r2_484_TrROS_Hall]	4.86 ± 0.23	3.31 ± 0.24	4.6 ± 0.19
SKDPNNEWVVIKFEVTIPVPPGQKPITADEIASQVRQIMQNHGMEITSVEVEYRGNQVTVSVEIVIPKKASA [r9_1134_TrROS]	3.32 ± 0.11	3.23 ± 0.19	3.22 ± 0.18
SAGGGITITLPDGSVIEIEPVSTFTNEDGQPVTKIKATLTDPVTGTSVEADIYLFPDGGVKIDLKPGSAGGS [r16_651_TrMRF]	2.35 ± 0.031	2.3 ± 0.051	2.35 ± 0.062
SAGGSAGGSAGSKDTMYLLKVKDLGENELKETYIEVPAEKVQEVIDALSSDPNLEIEVIPSAGGSAGGSAGG [r17_50_TrMRF]	1.09 ± 0.054	1.06 ± 0.041	1.11 ± 0.064
SAGGSAGGSATATVTPHEGAWTVTVTGPDSTETFTFEADEETVREFVELLKAPDVDIDPVPGSAGGSAGGSA [r18_103_TrMRF]	1.12 ± 0.096	1.79 ± 0.07	1.46 ± 0.086
SAGGSAGGSAMKIELTVPPGEEAELEARAKALAEAEGVEVVSVSKSPEGTYTMTVLNTVPPESAGGSAGGSA [r18_351_JUSTAS]	-0.164 ± 0.19	0.532 ± 0.058	0.317 ± 0.098
SAGGSAGGSAGGEEKEVYLVRFRRPDGSEVTVVAPWEDLEEIVKSLPEAVEVEVEKAPLSAGGSAGGSAGGS [r10_437_TrMRF]	2.22 ± 0.089	1.58 ± 0.042	1.98 ± 0.17
SMEVKIELTDEEIEAALEAGYEVEIEVRVVEVEYDEETDEVTVKVEVTITIRPVPPPPEVVVDEETGEILSA [r9_396_TrROS_Hall]	0.342 ± 0.057	2.1 ± 0.23	1.27 ± 0.34
SAGGSAGGSASSIVLTKTPGSYVLTEVELSSSTYPPSPPDYGSVVTVTPLEVVEREPGVPLPSAGGSAGGSA [r18_255_JUSTAS]	0.263 ± 0.19	0.0789 ± 0.12	0.176 ± 0.18
SAGGPPVTLTLTLTFTETRTVRNPATGETVTVEKVTLTLTITLEPGMSKEQLEALLKELRELFPSLESAGGS [r8_306_TrROS_Hall]	5.15 ± 0.28	3.53 ± 0.25	5.11 ± 0.29
SAGGSAGGSANGFVFKIKEVFEVDGKLFLKVTGTDKEYIIPDNAIIEPLEDDSVKVIILPPESAGGSAGGSA [r18_468_TrMRF]	1.35 ± 0.086	1.19 ± 0.021	1.31 ± 0.061
SAGGIPPNDPEYQQKMQLLKEIQNFAKEQQQNGRDVKIETIEINPEDGRVTITVQYPNGKKVTITIPSAGGS [r8_277_TrROS]	1.56 ± 0.048	1.79 ± 0.057	1.66 ± 0.064
SAKLEIELNGYKIVSVEVNEDGTVKMKIEVDGKLYELTLKVKLPPPKVEVKEEKKEVKEVKFVKEGEEKSAG [r14_218_TrROS_Hall]	2.15 ± 0.094	1.18 ± 0.096	2.05 ± 0.3
SAGGSAGGSKKPPIYKIEIEIDGKKLTIEAKSKEEALKALKEELKKKYPNLKITKIKIEKVKPSAGGSAGGS [r12_429_TrROS_Hall]	2.4 ± 0.14	1.52 ± 0.088	2.14 ± 0.15
SAGGSAGGSAGSSPSDLKVTLKVTLPDGTVLTVVMPAHATLDDFPADRPVTVTTLETKLESAGGSAGGSAGG [r11_997_JUSTAS]	0.656 ± 0.043	1.66 ± 0.084	1.29 ± 0.12
SAGGKELILKLKIEVNGKTLTIEVKVSPEELKKLLDELKKLGIKEIEIESIEFDKETNEIKVKVKVKSAGGS [r8_219_TrROS_Hall]	4.09 ± 0.17	2.52 ± 0.063	3.77 ± 0.15
SAGGSAGGSAGTIKVNGKTVTITKNKKTGKYTITVTLKNGEKKTFVFPSKEDVEEALKALSAGGSAGGSAGG [r11_238_TrROS_Hall]	4.14 ± 0.08	3.27 ± 0.11	3.94 ± 0.13
SAGGSAGGSAGKPLKVKKFEVELLVRDPETNRWYRIRAEVYRVEGLPDLFIIKLEIEELPSAGGSAGGSAGG [r11_1029_TrROS_Hall]	4.82 ± 0.099	3.96 ± 0.12	4.6 ± 0.11
SAGGSAGGSAMKTYTLEQIEELLKSLPEEEIEEVKIEEKEGKKVIYVKTKDGREIEIVVEPSAGGSAGGSAG [r3_291_TrROS_Hall]	3.19 ± 0.052	2.86 ± 0.2	2.98 ± 0.13
SAGGVRYRNPLTGVEIPPDATEEERAAIARAVAKPVVLPVTVPVYVEEGDVVVPVERTFHVPLGPDGSAGGS [r16_387_TrMRF]	0.0948 ± 0.12	0.22 ± 0.085	0.206 ± 0.083
SAGGGMMTLVTLEITIPKPPDPKTGKSRPLPLTLEFEVEADDPEALEERVEEELEKIGIPEEARKLLSAGGS [r16_40_JUSTAS]	0.547 ± 0.16	0.471 ± 0.092	0.698 ± 0.2

Sequence	folding stability dG unfold [1] [kcal/mol]	folding stability dG unfold [2] [kcal/mol]	folding stability dG unfold [3] [kcal/mol]
SAGGSAFEEVKKKYPNAKWEKIGDEGDTAVYRLTFPGGEKILITVPTLPETDEPVVEVTYVPKGEESAGGSA [r15_547_JUSTAS]	2.842 ± 0.017	2.71 ± 0.093	2.82 ± 0.059
SAGDNYREVEYTLKLKNPKGERKLKVKVYYPKGGMFIKIEWPDNGRKIDIPFKSPEDAEETIKDLLDKLSAG [r5_480_TrROS]	2.25 ± 0.13	1.71 ± 0.059	2.13 ± 0.22
SAGGSAGGSAGGDERVEVFEFDAPGGYRVRLVDFGDLALVAFISPDGRPAVIPVPRELLSAGGSAGGSAGGS [r10_1075_TrMRF]	1.87 ± 0.035	0.529 ± 0.041	1.41 ± 0.044
SNYLMIRIKEIDPNNPNKIKIEDIHPMPDNGNVQINIEHPGQEIYVMFNSADDAEEFINTLLKNYGLKPESA [r9_258_TrROS]	1.6 ± 0.11	0.925 ± 0.053	1.33 ± 0.098
SAGGSAGGSAILVPSPETAKKIMDELRKKTGAKVKMKPIGTGADGKEYYRIEVVPPDKPLDSAGGSAGGSAG [r3_59_TrMRF]	-0.118 ± 0.14	0.029 ± 0.084	0.0705 ± 0.14
SAGGSAGGSAGGTAEAVRKLAEEFSQQHGMPIKDVEVQRPPNKWKPVIRYPDNGKWIEISAGGSAGGSAGGS [r10_161_TrROS]	0.465 ± 0.13	0.298 ± 0.086	0.388 ± 0.2
SAGGKPAKPTRLDFPDDDVKTVPANTKIILTRPDGSKLVIELPEEEFTAKPDEWVFETPTSKITFPIASAGG [r13_643_TrMRF]	0.657 ± 0.15	0.767 ± 0.092	0.725 ± 0.21
SAGGSAKKPKWIPIKIKLPGSLEEAREWAEEIAKWLAKQNGDIKIDAIKYERDPNGHVEVTIQVRVSAGGSA [r15_718_TrROS]	3.83 ± 0.059	2.36 ± 0.066	3.36 ± 0.086
SAGGSAGGSAGGKKTITVTVKINGKTYRVEIKYDEKTKKVTIKIEVNGKKYEFEFELKDSAGGSAGGSAGGS [r10_438_TrROS_Hall]	4.42 ± 0.25	4.73 ± 0.96	4.54 ± 0.36
SAGGMKVRVRLPDGTEVELEVTEVTVSTDPSTGTPVYTITLANGEKLTVTVPVDKPVRPGETVTVTPESAGG [r13_390_JUSTAS]	3.71 ± 0.053	3.72 ± 0.056	3.81 ± 0.056
SAGGSAGMMTDVEVEEYPGTGLVRITIRTPDAVVSGEGRFLSPELLEITISFPGAGKRTNELIPVRSAGGSA [r15_837_JUSTAS]	1.26 ± 0.048	1.23 ± 0.072	1.2 ± 0.088
SAGGMTPSVLSNLSEEERKEAVRDFIIEFIKKAFPNVPEDFSVEEVPVLVYDLKTGKLFEVTVHLEGKSAGG [r13_555_TrMRF]	2.16 ± 0.1	1.19 ± 0.083	1.73 ± 0.15
SMKDATSTSIGSRTYTYPNTDPSVSPEELKEKVIEEIKKEPELKAVEITVEVDPSTGTVTITINLTKLVKSA [r9_1001_JUSTAS]	1.76 ± 0.054	1.14 ± 0.021	1.5 ± 0.077
SAGGSAGGSAPKEVVVLDLKISPVPDPRYFPAEFTVYIPENGKPFPVTAVFDPEGGEVTIGSAGGSAGGSAG [r3_1_TrMRF]	3.23 ± 0.1	2.7 ± 0.071	3.04 ± 0.12
SAGGSAGGGSSITPVEVTPLPEDKYRVLIRITTYLPGGKPRTEEIEVEMPPDETAEEAAARVLSSAGGSAGG [r6_329_JUSTAS]	0.29 ± 0.11	0.341 ± 0.044	0.367 ± 0.075
SLSEEEAKDNPEEANEKMQPPPVPPIPLPVPIRNPDNKQEFPAPFEIRTLPNHLEFRFPGNGKPFPVPIDSA [r9_548_TrROS]	2.87 ± 0.11	2.53 ± 0.24	2.63 ± 0.28
SAGGSAGGSAGGNWVMIEFNFPPGKKLKIEIPNGRDIQRHRDPDNGTLWFMIPPEAAEDFSAGGSAGGSAGG [r7_155_TrROS]	0.509 ± 0.26	0.649 ± 0.11	0.636 ± 0.27
SAGGSSVLINHTKTFSSEEEAEKEAEELKEKAKKEGFDEVKVEISKDPSGGTYTLKVTIKKKLPPDLKSAGG [r19_92_JUSTAS]	3.21 ± 0.072	1.96 ± 0.078	2.87 ± 0.26
SAGGSAMYYRFEIPRPDGVIEEIWIKMTPEEAKALVEALEADPNVASVKVEAITEEEARKLGIFENSAGGSA [r15_39_JUSTAS]	4.46 ± 0.12	4.17 ± 0.28	4.34 ± 0.18
SAMPVVTLKAKVTIHSDPNGIEEKEIEITVTFPDPNVGLEEAKKKAEEAIKEYAEKNGLKIELEEITIESAG [r14_190_JUSTAS]	2.06 ± 0.047	1.19 ± 0.08	1.88 ± 0.09
SKKPKLKIEIEIPEITNMQPDPDNGKYTMRVPFRIKIEWKDNGKEREVDIPIPMNMTVDDARDQLKDLLKSA [r9_656_TrROS]	1.57 ± 0.16	0.629 ± 0.044	1.1 ± 0.13

Reference: the supplement of paper PMC12764529
